Drawing on patent US20220315648A1 (AC IMMUNE, published 2022), this text covers binding result and EC50 for eleven molecules.

Numbering of substitutions follows the chain as printed. No end group written: not given here. *: point of attachment. Biotin = O=C1N[C@H]2[C@H](CS[C@H]2CCCCC(=O)*)N1

Sequences and labels used below:
T1: TDP-6 (human)
T1 construct: One of the 40-66 aa linear peptides; also called TDP-43 peptide 140-200
T1 peptide: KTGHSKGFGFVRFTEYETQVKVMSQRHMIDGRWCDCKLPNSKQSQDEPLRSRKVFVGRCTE

T2: TP-48 (human)
T2 construct: 23 residues
T2 peptide: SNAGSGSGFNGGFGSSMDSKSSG

T3: TP-40 (human)
T3 peptide: Biotin-NNQNQGNMQREPNQA

T4: TP-23 (human)
T4 peptide: Biotin-TEDMTEDELREFFSQ

T5: TP-21 (human)
T5 peptide: Biotin-KQSQDEPLRSRKVFV

B1: ACI-7069-634H10-Ab2 (antibody, IgG2b, V domains shown)
VH: EVQLQQSGAELVKPGASVRLSCTASGFNIKDTYMHWVKQRPEQGLEWIGRIDPANSNTKFDPKFQGKATITSDTSSNTAYLQLSSLTSEDTAVYYCARFYGGSHWYFDVWGAGTTVTVSS
VL: DIKMTQSPSSMYASLGERVTITCKASQDIKSYLSWYQHKPWKSPKALIYYATSLADGVPSRFSGSGSGQDYSLTISSLESDDTATYYCLQQGESPYTFGGGTKLEIK
notes: also called 634H10H7
B2: ACI-7069-642A10-Ab1 (antibody, IgG1, V domains shown)
VH: QVQLQQPGAELVKPGASVKLSCKASGYTFTKYWMHWVKQRPGQGLEWIGEINPSNGRTNYNEKFKSKATLTVDKSSSTAYMQLSSLTSEDSAVYYCARYMDYWGQGTSVTVSS
VL: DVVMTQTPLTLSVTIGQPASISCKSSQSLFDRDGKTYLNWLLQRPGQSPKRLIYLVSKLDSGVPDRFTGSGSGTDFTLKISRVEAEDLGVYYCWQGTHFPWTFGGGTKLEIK
notes: also called 642A10B11
B3: ACI-7069-636E5-Ab1 (antibody, IgG2b, V domains shown)
VH: EVHLVESGGDLVMPGGSLKLSCAASGFTFSNYGMSWVRQTPDKRLEWVATISSGGKYINYLDSLKGRFTISRDNAKNTLYLQMSSLKSEDTAMYYCAKDYGSGWAWFAYWGQGTLVTVSA
VL: QLVLTQSSSASFSLGASAKLTCTLSSQHSTYTIEWYQQQPLKPPKYVMELKKDGSHSTGDGIPDRFSGSSSGADRYLSISNIQPEDEAIYICGVGDTIKEQFVYVFGGGTKVTVL
notes: also called 636E5B8
B4: ACI-7071-809D9-Ab2 (antibody, IgG2b, V domains shown)
VH: QVQLQQSGAELVRPGVSVKISCKGSGYKFTDYSMHWVKQSHTKSLEWIGVISTYYGDTTYNQKFKGKATITVDKSSSTAYMELARLTSEDSAIYYCATYGNFPASFSYWGQGTLVTVSA
VL: DIVMTQAAPSIPVTPGESVSISCRSSKSLLHSNGNTYLYWFLQRPGQSPQLLIYRMSNLASGVPDRFSGSGSGTAFTLRISRVEAEDVGVYYCMQHLEYPFTFGSGTKLEIK
notes: also called 809D9C2
B5: ACI-7071-809F12-Ab1 (antibody, IgG2b, V domains shown)
VH: QVQLKESGPGLVAPSQSLSITCTVSGFSLNRNGVQWVRQPPGKGLEWLGVIWPGGSTNCNSALMSRLSISKDNSKSQVFLKMNSLHTDDTGIYYCARVGGNYVWDYNNYAWGQGTLVTVSA
VL: DVLMTQTPLSLPVSLGDQASISCRSSQNIVHSIGNTYLEWYLQKPGQSPKLLIYKVSNRFSGVPDRFSGSGSGTDFTLKISRVEAEDLGVYYCFQGSHVPYTFGGGTKLEIR
notes: also called 809F12D8
B6: ACI-7069-641H1-Ab2 (antibody, IgG2b, V domains shown)
VH: QVQLKESGPGLVAPSQSLSITCTVSGFSLTNYGVHWVRQPPGKGLEWLGLMWAGGSTNYNSALMSRLSISKDNSKSQVFLKMNSLQTDDTAMYYCVIYRTGFAYWGQGTLVTVSA
VL: B5 VL with N28S, S32T, Y101F, G105S, R112K
notes: also called 641H1E7
B7: ACI-7069-646B7-Ab1 (antibody, IgG2b, V domains shown)
VH: B6 VH with Y32F, L50I, R99K
VL: B5 VL with N28S, S32A, Y101F, G105S, R112K
notes: also called 646B7F7
B8: ACI-7069-642D12-Ab1 (antibody, IgG2b, V domains shown)
VH: EVQLQQSGAELVKPGASVRLSCTASGFNIKDPYMHWVRQRPKQGLEWIGRIDPADGNTKYDPKFQGKATLTADTSSNVAYLHLSSLTSEDTAVYYCARFYGSSHWYFDVWGAGTTVTVSS
VL: B1 VL with S31R, H38Q, A46I, S65T, T83V
notes: also called 642D12B4
B9: ACI-7071-712A6-Ab1 (antibody, IgG2c, V domains shown)
VH: QVQLQQSGAELVKPGTSVKLSCKASAYTFTEYTIHWIKQKSGQGLEWIGWFHPENDNIKYNENFKDKATLTADRSSSTVYMELSRLTSEDSAVYFCAGTSGYGDYWGQGTTLTVSS
VL: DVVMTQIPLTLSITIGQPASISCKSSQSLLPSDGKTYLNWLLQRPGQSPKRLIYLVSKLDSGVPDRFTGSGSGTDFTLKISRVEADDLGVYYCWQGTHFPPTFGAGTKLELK
notes: Mouse hybridoma antibody, IgG2c; also called 712A6B10
B10: ACI-7069-633B12-Ab1 (antibody, IgG2b, V domains shown)
VH: EVQLQQSGPELVKPGASVKISCKTSGFTFTEYSMHWVKQSHGKSLEWIGGINPNNGGTSYNQKFKGKATLTVDKSSSTAYMELRSLTSEDSAVYYCARESWGQGTTLTVSS
VL: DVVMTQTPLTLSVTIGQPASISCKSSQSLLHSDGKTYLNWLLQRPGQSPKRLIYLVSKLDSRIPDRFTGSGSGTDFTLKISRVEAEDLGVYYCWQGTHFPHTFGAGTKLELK
notes: also called 633B12C8
B11: ACI-7069-631B2-Ab1 (antibody, IgG1, V domains shown)
VH: B10 VH with F27Y, M34I, K43E, N54D, S59R, E82D
VL: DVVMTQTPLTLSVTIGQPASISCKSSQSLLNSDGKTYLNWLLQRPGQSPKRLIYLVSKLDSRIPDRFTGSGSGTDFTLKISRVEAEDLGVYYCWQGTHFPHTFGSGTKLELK
notes: also called 631B2A2

One assay addresses T1, TDP-6. Briefly: indirect ELISA on TDP-43 peptides, antibody at 1 µg/ml.
On to B1, for which the binding result is “binds”.

Another assay deals with T2, TP-48. The description is as above.
Take B2: the binding result is “binds”.

A further assay deals with T3, TP-40. Described as above.
In the case of B3, the binding result is recorded as “binds”.

The target in the next assay is T4, TP-23. The assay is described as above.
Consider B4, for which the binding result was “binds”.

In the case of B5, the binding result is reported as “binds”. As to B6, the binding result is “binds”. On to B7, for which the binding result is recorded as “binds”.

The next assay deals with T5, TP-21. The description is as above.
With B8, the binding result was “binds”.

The target in another assay is T6, human full length TDP-43 (FL TDP-43), recombinant, soluble (human, UniProt Q13148 1-414).
T6 construct: Antigen of Luminex, ELISA and SPR (soluble form); also called TDP-43 protein; Soluble TDP-43
T6 sequence (Q13148 whole entry): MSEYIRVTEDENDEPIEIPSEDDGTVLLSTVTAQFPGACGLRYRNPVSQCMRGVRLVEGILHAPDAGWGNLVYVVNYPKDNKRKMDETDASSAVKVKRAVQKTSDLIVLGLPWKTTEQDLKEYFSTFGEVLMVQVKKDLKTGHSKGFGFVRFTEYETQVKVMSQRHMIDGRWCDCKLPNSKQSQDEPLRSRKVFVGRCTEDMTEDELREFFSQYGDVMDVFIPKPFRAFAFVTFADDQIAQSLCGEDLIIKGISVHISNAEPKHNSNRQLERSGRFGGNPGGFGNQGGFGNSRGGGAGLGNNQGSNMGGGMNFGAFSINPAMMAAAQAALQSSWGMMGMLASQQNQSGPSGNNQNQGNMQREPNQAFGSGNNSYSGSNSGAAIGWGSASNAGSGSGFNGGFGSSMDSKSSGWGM
Kind of assay: Luminex, beads conjugated to FL TDP-43, antibody serial dilution. The protocol:
Mice were euthanized and fusion with myeloma cells was performed using splenocytes from four individual mice. Screening for antibodies from the successfully fused hybridoma cell lines were performed as follows. Diluted (1:32) cell culture supernatants were analyzed using Luminex bead-based multiplex assay (Luminex, The Netherlands). Luminex beads were conjugated to FL TDP-43 and with capturing IgGs with anti-mouse IgG-Fc antibodies specific for the IgG1, IgG2a, IgG2b, IgG2c, and IgG3 subclasses (Jackson Immunoresearch, USA). Binding to beads conjugated to FL TDP-43 identified 386 hits derived from mice immunized with the FL TDP-43 liposomal vaccine.
Luminex assays with serial dilution of antibodies were performed as described before to determine half maximal effective concentration (EC50) of binding of antibodies to FL TDP-43. In summary, all tested antibodies bind to full length TDP-43 with high affinity.
Turning to B9, the EC50 came to 180 µM. Still for that read-out and setting: next, B1: less than 10 µM. Same read-out and setting: next, B8: less than 10 µM; B4: less than 10 µM. Still for that read-out and setting: next, B10: less than 10 µM. In the case of B11, the EC50 is less than 10 µM. The same measure, in the same setting: the same measure for B3: less than 10 µM; for B5: less than 10 µM.

Turning to B6, the EC50 was less than 10 µM. Same read-out and setting: the same measure for B7: less than 10 µM.
